Consider 1 molecule from patent publication US20230279088A1 (NATIONAL RESEARCH COUNCIL OF CANADA, published 2023).

The target of this test is T1, Aβ1-42 oligomers (Aβ1-42 preparation consisting predominantly of higher oligomers) (UniProt P05067 672-713).
T1 construct: domain: Aβ1-42; Oligomeric aggregate; also called Aβ oligomers; Aβ-oligomer
The test is described as follows: ELISA: ABP immobilized on the plate, exposed to Aβ, bound Aβ detected with 6E10 or 4G8. On the procedure: ELISA: Aβ-binding assays were carried out as described by Chakravarthy et al (2013). Maxisorp 96-well ELISA plates (Nunc) were coated with (100-500 ng/well) either free ABP (synthetic) or various FC5-ABP constructs overnight at 4° C. in PBS. The wells were blocked with 1% BSA in TBS-T for 30 min and then incubated with Af31-42 preparations consisting predominantly of either monomer and dimers (Mo) or higher oligomers (010 in TBS-T at RT for 45 min with gentle agitation. Following three TBS-T washes, bound Aβ was detected by incubating HRP-conjugated Aβ-specific antibody (6E10 or 4G8) for 90 min at RT in TBS-T. The bound antibody was detected with SureBlueTM TMB reagent kit (KPL) by colorimetric measurement at 450 nm according to manufacturer's instructions.
A Coomassie blue stained gel after separation of FC5 fusion molecules by SDS-PAGE (NR-non-reducing and R-reducing conditions) indicating successful production of recombinant fusion molecule is shown in FIG. 2A. Free or fused ABP was immobilized on ELISA plate by coating samples in phosphate buffered saline (PBS) overnight at 4° C. and exposed to Aβ preparations as described by Chakravarthy et al., 2013. Bound Aβ was detected with Aβ-specific antibody 6E10 or 4G8 (Chakravarthy et al., 2013). […] Bound Aβ was detected with specific antibody as above. […]
A general note: In an ELISA, binding on a coated surface is turned into a signal by an enzyme label.

T1 sequence (P05067 672-713 limits assumed): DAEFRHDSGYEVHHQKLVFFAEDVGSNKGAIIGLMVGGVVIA

With KTFKTRKASAQASLASKDKTPKSKSKKRNSTQLKSRVKNI (also called P4-5 peptide (ABP)) [free ABP (synthetic amyloid-binding peptide)], the binding result was “binds”.
